Measurements: PMC11633381, “Acarbose impairs gut Bacteroides growth by targeting intracellular glucosidases” (mBio, 2024)

Molecular target: the molecule itself
Test: SEC; 0.5 mL of 10.6 mg/mL BoSusA or 8.2 mg/mL SusA on HiPrep 16/60 Sephacryl S-200 HR, 20 mM HEPES, 100 mM NaCl, pH 7.0, 0.5 mL/min; compared with BioRad gel filtration standards

B1: SusA, periplasmic GH13 neopullulanase/alpha-amylase of the Bacteroides thetaiotaomicron Sus (enzyme, UniProt Q8A1G0 23-617, looked up)
chain: TSTIKKVAPTFWWAGMKNPELQILLYGDRISSADVSLSADNITLQEVVKQENPNYLVLYLDLSKAAPQNFDIILKQGKKQTKIPYELKQRRPNASAVEGFDSSDVLYLIMPDRFANGNPSNDIIPGMLEGNVDRNEPFARHGGDLKGIENHLDYIADLGVTSIWLNPIQENDMKEGSYHGYAITDYYQVDRRFGSNEEFRKLTQEANAKGLKVVMDMIFNHCGSDNYLFKDMPSKDWFNFEGNYVQTSFKTATQMDPYASDYEKKIAIDGWFTLTMPDFNQRNRHVATYLIQSSIWWIEYAGINGIRQDTHPYADFDMMARWCKAVNEEYPKFNIVGETWLGNNVLISYWQKDSRLAYPKNSNLPTVMDFPLMEEMNKAFDEETTEWNGGLFRLYEYLSQDIVYSHPMSLLTFLDNHDTSRFYRSEADTKNLDRYKQALTFLLTTRGIPQIYYGTEILMAADKANGDGLLRCDFPGGWPNDTKNCFDAANRTPQQNEAFSFMQKLLQWRKGNEVIAKGQLKHFAPNKGVYVYERKYGDKSVVVFLNGNDREQTIDLVPYQEILPASSAFDLLTEKKVELRNELTLPSREIYLLSF
notes: SusA, Bacteroides thetaiotaomicron VPI-5482, locus tag bt_3704 (NCBI AAO78809.1, 617 amino acids); cloned starting with T23, after the SPI signal peptide; also called bt_3704
stoichiometry N: 2
